Results: publication PMC11626772

Target: N-terminally truncated type IV pilin from P. aeruginosa strain P1 (ΔP1) (Pseudomonas aeruginosa strain P1)
Experiment: SEC-MALS; 23 mg ml^-1 ΔP1 with trigger solution (10 mM Tris, 300 mM NaCl, 1 mM EDTA, 1 mM DTT, 1 M MPD pH 7.4) at 10:1 (v:v) protein:hydrophobe, 96 h at room temperature with nutation; then SEC-MALS as for the untreated sample; monomer to dimer

N-terminally truncated type IV pilin from P. aeruginosa strain P1 (ΔP1) (domain or fragment)
mass fraction of the dimer: 9.1%
stoichiometry N: 2
